Results taken from US20090081197A1, “Methods for Selection of Melanocortin Receptor-Specific Agents for Treatment of Obesity” (Palatin Technologies, Inc., priority 2007, published 2009).

Assays:
[1] = molecular target: human melanocortin 4 receptor (human) (UniProt P32245); test: radioligand competition, [I125]-NDP-α-MSH, hMC4-R membranes, 1 µM compound
[2] = molecular target: human melanocortin 5 receptor (human) (UniProt P33032); test: radioligand competition, [I125]-NDP-α-MSH, hMC5-R membranes
human melanocortin 5 receptor (human), sequence (P33032 whole entry): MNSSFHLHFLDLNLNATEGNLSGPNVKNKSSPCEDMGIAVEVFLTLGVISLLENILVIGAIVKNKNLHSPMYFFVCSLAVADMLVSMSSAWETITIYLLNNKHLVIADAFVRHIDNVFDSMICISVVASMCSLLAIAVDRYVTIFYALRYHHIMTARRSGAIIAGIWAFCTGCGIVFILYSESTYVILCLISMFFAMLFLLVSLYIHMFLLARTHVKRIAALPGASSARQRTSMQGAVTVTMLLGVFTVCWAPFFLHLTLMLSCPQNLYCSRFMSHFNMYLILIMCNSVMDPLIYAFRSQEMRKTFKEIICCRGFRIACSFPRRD

[3] = molecular target: human MC1-R (human) (UniProt Q01726); test: radioligand competition, NDP-α-MSH, human MC1-R, normal system
human MC1-R (human), sequence (Q01726 whole entry): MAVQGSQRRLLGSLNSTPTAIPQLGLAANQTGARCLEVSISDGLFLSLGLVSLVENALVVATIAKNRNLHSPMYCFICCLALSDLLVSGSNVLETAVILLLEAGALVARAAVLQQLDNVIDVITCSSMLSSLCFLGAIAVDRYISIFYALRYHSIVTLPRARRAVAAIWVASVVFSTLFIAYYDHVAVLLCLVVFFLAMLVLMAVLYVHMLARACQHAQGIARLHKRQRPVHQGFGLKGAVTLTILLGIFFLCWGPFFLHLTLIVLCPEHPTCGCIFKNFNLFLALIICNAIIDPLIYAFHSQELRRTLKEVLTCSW

[4] = molecular target: human melanocortin 4 receptor (human) (UniProt P32245); test: cell-based or functional assay
[5] = molecular target: human melanocortin 3 receptor (human) (UniProt P41968); test: radioligand competition, [I125]-NDP-α-MSH, hMC3-R membranes
human melanocortin 3 receptor (human), sequence (P41968 whole entry): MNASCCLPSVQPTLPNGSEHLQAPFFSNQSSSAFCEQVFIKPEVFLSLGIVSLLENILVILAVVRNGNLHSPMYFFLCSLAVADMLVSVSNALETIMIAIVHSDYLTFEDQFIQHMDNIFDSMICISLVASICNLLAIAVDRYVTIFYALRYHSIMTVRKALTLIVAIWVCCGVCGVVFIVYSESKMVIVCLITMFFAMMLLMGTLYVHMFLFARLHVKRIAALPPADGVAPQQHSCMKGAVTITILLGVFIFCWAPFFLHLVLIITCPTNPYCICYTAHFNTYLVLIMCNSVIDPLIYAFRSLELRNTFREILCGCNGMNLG

[6] = molecular target: MC1-R of B-16 mouse melanoma cells (mouse) (UniProt Q01727); test: radioligand competition, [I125]-NDP-α-MSH, B-16 membranes
MC1-R of B-16 mouse melanoma cells (mouse), sequence (Q01727 whole entry): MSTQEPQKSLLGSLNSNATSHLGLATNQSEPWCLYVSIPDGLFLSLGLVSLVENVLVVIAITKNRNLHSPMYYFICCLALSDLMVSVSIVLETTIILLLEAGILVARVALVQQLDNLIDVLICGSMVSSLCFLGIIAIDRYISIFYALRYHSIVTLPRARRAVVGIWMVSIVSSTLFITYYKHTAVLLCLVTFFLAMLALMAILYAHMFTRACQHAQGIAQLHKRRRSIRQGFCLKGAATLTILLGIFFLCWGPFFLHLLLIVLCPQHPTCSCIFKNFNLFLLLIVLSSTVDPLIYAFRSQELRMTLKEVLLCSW

[7] = molecular target: MC1-R of B-16 mouse melanoma cells (mouse) (UniProt Q01727); test: radioligand competition, [I125]-NDP-α-MSH, B-16 membranes, 1 µM compound
[8] = molecular target: human melanocortin 4 receptor (human) (UniProt P32245); test: radioligand competition, [I125]-NDP-α-MSH, hMC4-R membranes
[9] = molecular target: human melanocortin 3 receptor (human) (UniProt P41968); test: radioligand competition, [I125]-NDP-α-MSH, hMC3-R membranes, 1 µM compound
[10] = molecular target: human melanocortin 5 receptor (human) (UniProt P33032); test: radioligand competition, [I125]-NDP-α-MSH, hMC5-R membranes, 1 µM compound

human melanocortin 4 receptor (human), sequence (P32245 whole entry): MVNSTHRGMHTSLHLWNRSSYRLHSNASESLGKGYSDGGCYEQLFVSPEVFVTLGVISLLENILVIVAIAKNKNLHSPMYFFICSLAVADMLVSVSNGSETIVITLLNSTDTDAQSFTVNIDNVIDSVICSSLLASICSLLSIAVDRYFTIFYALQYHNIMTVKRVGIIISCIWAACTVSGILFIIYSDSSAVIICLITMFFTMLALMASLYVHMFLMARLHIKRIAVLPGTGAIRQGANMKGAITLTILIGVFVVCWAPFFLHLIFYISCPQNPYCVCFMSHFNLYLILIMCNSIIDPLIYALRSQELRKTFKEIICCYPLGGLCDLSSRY

B1: Ac-Nle-cyclo(Asp-His-D-Nal 2-Arg-Nal 2-Lys)-OH (peptide)
peptide: XDHXRXK
modifications: N-terminal acetyl; Nle at 1 (X); D-Nal 2 at 4 (X); Nal 2 at 6 (X); cyclo(Asp 2 to Lys 7); free C-terminal acid
Inhibition at 1 µM (NDP-α-MSH) [1]: 100% | Ki [2]: 200 pM | Ki [3]: 250 pM | pA2 (antagonism of NDP-α-MSH-stimulated cAMP, Schild analysis), normal system [4]: 8.1 | Ki [5]: 300 pM | Ki [6]: 200 pM | Inhibition at 1 µM (NDP-α-MSH) [7]: 102% | Ki [8]: 20 pM | Inhibition at 1 µM (NDP-α-MSH) [9]: 98% | Inhibition at 1 µM (NDP-α-MSH) [10]: 100%
